The results in this text go back to publication PMC3737549.

The target of the test is RORγ-mCherry (UniProt P51450).
Chain of UniProt P51450 (P51450 whole entry): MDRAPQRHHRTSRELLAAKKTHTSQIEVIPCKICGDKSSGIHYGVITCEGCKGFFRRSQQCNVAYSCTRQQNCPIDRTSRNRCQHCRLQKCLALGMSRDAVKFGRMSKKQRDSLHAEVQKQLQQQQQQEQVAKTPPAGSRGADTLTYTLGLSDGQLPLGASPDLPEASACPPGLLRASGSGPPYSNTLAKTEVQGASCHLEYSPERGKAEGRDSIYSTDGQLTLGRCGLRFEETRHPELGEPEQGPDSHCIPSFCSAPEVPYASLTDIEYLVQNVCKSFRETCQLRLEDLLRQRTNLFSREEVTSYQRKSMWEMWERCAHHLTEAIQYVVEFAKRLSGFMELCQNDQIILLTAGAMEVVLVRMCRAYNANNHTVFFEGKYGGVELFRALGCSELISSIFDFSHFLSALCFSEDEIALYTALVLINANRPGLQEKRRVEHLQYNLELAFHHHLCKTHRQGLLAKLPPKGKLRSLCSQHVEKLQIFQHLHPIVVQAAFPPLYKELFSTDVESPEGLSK

B1: Myc-Prox1 PΔC636 (domain or fragment)
chain: MPDHDSTALLSRQTKRRRVDIGVKRTVGTASAFFAKARATFFSAMNPQGSEQDVEYSVVQHADGEKSNVLRKLLKRANSYEDAMMPFPGATIISQLLKNNMNKNGGTEPSFQASGLSSTGSEVHQEDICSNSSRDSPPECLSPFGRPTMSQFDVDRLCDEHLRAKRARVENIIRGMSHSPSVALRGNENEREMAPQSVSPRESYRENKRKQKLPQQQQQSFQQLVSARKEQKREERRQLKQQLEDMQKQLRQLQEKFYQVYDSTDSENDEDGDLSEDSMRSEILDARAQDSVGRSDNEMCELDPGQFIDRARALIREQEMAENKPKREGSNKERDHGPNSLQPEGKHLAETLKQELNTAMSQVVDTVVKVFSAKPSRQVPQVFPPLQIPQARFAVNGENHNFHTANQRLQCFGDVIIPNPLDTFGSVQMPSSTDQTEALPLVVRKNSSEQSASGPATGGHHQPLHQSPLSATAGFTTPSFRHPFPLPLMAYPFQSPLGAPSGSFSGKDRASPESLDLTRDTTSLRTKMSSHHLSHHPCSPAHPPSTAEGLSLSLIKSECGDLQDMSDISPYSGSAMQEGLSPNHLKKAKLMFFYTRYPSSNMLKTYFSDVKFNRCITSQLIKWFSNFREFYYIQME
Take B1: the nuclear localisation of PΔC636 in COS-1 cells: percent of cells with the mutant predominantly in the nucleus on co-expression with RORγ (6% when expressed alone) (% of the cells) worked out at 80.

B2: Myc-Prox1 PΔN106 (domain or fragment)
chain: TEPSFQASGLSSTGSEVHQEDICSNSSRDSPPECLSPFGRPTMSQFDVDRLCDEHLRAKRARVENIIRGMSHSPSVALRGNENEREMAPQSVSPRESYRENKRKQKLPQQQQQSFQQLVSARKEQKREERRQLKQQLEDMQKQLRQLQEKFYQVYDSTDSENDEDGDLSEDSMRSEILDARAQDSVGRSDNEMCELDPGQFIDRARALIREQEMAENKPKREGSNKERDHGPNSLQPEGKHLAETLKQELNTAMSQVVDTVVKVFSAKPSRQVPQVFPPLQIPQARFAVNGENHNFHTANQRLQCFGDVIIPNPLDTFGSVQMPSSTDQTEALPLVVRKNSSEQSASGPATGGHHQPLHQSPLSATAGFTTPSFRHPFPLPLMAYPFQSPLGAPSGSFSGKDRASPESLDLTRDTTSLRTKMSSHHLSHHPCSPAHPPSTAEGLSLSLIKSECGDLQDMSDISPYSGSAMQEGLSPNHLKKAKLMFFYTRYPSSNMLKTYFSDVKFNRCITSQLIKWFSNFREFYYIQMEKYARQAINDGVTSTEELSITRDCELYRALNMHYNKANDFEVPERFLEVAQITLREFFNAIIAGKDVDPSWKKAIYKVICKLDSEVPEIFKSPNCLQELLHE
B2 yielded a nuclear localisation of PΔN106 in COS-1 cells: percent of cells with the mutant principally in the nucleus on co-expression with RORγ (50% when expressed alone) (% of the cells) of 90.
